T1: Human B7-H3(4Ig), His Tag (human, UniProt Q5ZPR3 29-461)
T1 construct: also called recombinant human B7H3 antigen; human B7-H3 protein; not shown: His tag
T1 sequence (looked up): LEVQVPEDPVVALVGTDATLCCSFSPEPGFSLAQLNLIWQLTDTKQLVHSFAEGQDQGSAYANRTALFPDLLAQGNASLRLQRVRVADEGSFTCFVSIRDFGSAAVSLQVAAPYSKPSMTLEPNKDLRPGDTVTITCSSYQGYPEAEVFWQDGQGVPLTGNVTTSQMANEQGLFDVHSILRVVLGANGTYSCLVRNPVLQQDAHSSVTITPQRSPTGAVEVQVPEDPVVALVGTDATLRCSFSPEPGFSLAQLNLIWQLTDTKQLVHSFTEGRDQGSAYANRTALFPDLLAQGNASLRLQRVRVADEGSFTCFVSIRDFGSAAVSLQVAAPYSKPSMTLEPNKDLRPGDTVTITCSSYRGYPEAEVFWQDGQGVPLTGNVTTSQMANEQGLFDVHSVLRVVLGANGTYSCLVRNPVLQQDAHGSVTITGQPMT

T2: Human BTNL2 protein, His Tag (human, UniProt Q9UIR0-1 24-455, limits assumed)
T2 construct: Bought protein; also called AtaGenix ATMP02212HU; not shown: His tag
T2 sequence (looked up): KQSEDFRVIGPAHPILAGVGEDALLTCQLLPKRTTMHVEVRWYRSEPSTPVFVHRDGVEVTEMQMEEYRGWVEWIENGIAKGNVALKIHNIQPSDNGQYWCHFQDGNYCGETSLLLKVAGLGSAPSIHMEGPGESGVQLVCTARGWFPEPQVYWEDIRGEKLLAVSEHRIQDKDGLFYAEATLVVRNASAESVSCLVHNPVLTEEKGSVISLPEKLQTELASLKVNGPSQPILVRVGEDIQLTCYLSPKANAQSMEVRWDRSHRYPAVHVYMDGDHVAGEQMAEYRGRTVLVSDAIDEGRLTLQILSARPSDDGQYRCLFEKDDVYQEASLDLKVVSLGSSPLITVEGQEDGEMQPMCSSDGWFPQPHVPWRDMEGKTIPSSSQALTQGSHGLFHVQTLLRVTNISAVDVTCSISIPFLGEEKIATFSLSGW

B1: W301088-1.145.16-z3-p1-uIgG1KV320 (antibody, V domains shown)
VH: QVQLQESGPGLVKPSQTLSLTCTVTDYSITGDYAWNWIRQHPGKGLEWIGYISYSGSTSYNPSLQSRVTISRDTSKNQFSLKLSSVTAADTAVYFCARSLGRRWYFVVWGQGTTVTVSS
VL: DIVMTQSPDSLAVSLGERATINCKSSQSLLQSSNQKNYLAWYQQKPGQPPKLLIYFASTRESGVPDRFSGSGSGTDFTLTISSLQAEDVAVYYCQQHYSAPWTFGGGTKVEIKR
notes: Humanized, PTM-removed (VL N027dQ) antibody; human IgG1 LALA, kappa; also called WBP301088; W301088-z3-p1
B2: W301088-1.145.16-xIgG1KV320 (antibody, V domains shown)
VH: DVQLQESGPGLVKPSQSLSLTCTVTDYSITGDYAWNWIRQFPGNKLEWMGYISYSGSTSYNPSLQSRISITRDTSKNQFFLQLNSVTSEDTATYFCARSLGRRWYFVVWGAGTTVTVSA
VL: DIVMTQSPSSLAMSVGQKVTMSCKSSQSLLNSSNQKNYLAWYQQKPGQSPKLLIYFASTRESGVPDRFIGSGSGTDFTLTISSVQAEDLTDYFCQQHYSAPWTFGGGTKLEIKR
B3: Enoblituzumab (MacroGenics) (antibody, V domains shown)
VH: EVQLVESGGGLVQPGGSLRLSCAASGFTFSSFGMHWVRQAPGKGLEWVAYISSDSSAIYYADTVKGRFTISRDNAKNSLYLQMNSLRDEDTAVYYCGRGRENIYYGSRLDYWGQGTTVTVSS
VL: DIQLTQSPSFLSASVGDRVTITCKASQNVDTNVAWYQQKPGKAPKALIYSASYRYSGVPSRFSGSGSGTDFTLTISSLQPEDFATYYCQQYNNYPFTFGQGTKLEIKR
B4: Antibody-drug conjugate WBP301088-X2 (DAR6) (antibody, human IgG1, kappa, L234A L235A, V domains shown)
VH: B1 VH
VL: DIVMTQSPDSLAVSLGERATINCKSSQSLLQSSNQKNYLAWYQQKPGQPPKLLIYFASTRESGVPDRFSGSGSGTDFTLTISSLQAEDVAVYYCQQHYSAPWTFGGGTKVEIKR
modifications: linker-payload X2 conjugated after TCEP reduction; drug loading (DAR) 5.68 per antibody; sites not stated

Legend:
[1] = biological target: T3, Cynomolgus monkey full-length B7H3 on transfected FlpinCHO cells (cynomolgus monkey); assay: FACS on cynomolgus monkey B7H3-transfected FlpinCHO cell pool
T3 construct: whole, on cells; also called W3XX088-FlpinCHO.cProl.pool
Experimental: FACS was used to detect the binding of antibodies to cynomolgus monkey B7H3. FlpinCHO cells were transfected with cynomolgus monkey B7H3 (W3XX088-FlpinCHO.cProl.pool) (1×10⁵ cells/well), and the transfected cells were incubated with various concentrations of antibodies (3.16-fold serially diluted with 1×DPBS/1% BSA from 50 nM to 0.0005 nM) in a volume of 100 μL/well in a refrigerator set to 4° C. for 1 h. Anti-human B7H3 reference antibody enoblituzumab (MacroGeneics) was used as a positive control. Human IgG1 isotype antibody was used as a negative control. After washing the cells with 1×DPBS/1% BSA, Alexa 647 goat anti-human antibody (diluted in a 1:500 ratio in 1×DPBS/1% BSA) was added. The cells were incubated in a refrigerator set to 4° C. for 0.5 h in the dark. The mean fluorescence intensity (MFI) of the cells was measured by a flow cytometry and analyzed by FlowJo. EC₅₀ values were calculated by four-parameter non-linear regression analysis using GraphPad Prism 7 software.

[2] = biological target: T1, Human B7-H3(4Ig), His Tag; assay: ELISA, plate coated with 2 µg/mL recombinant human B7-H3 (4Ig), serially diluted antibody, HRP anti-human secondary antibody, OD450
Experimental: A 96-well ELISA plate was coated with 2 μg/mL recombinant human B7H3 antigen (see the table above) at 30 μL/well and kept at 4° C. overnight. The following day, the well plate was washed 3 times with PBST and then blocked with 5% skim milk for 2 h. […] The plate was then washed 3 times with PBST, and an HRP-labeled anti-human secondary antibody diluted in a 1:5000 ratio was then added at 100 μL/well and incubated for 1 h. After the incubation was complete, the plate was washed six times with PBST, and TMB (SurModics, TMBS-1000-01) was added for color development. Based on the results of the color development, the reaction was stopped by adding 2M HCl, and the plate was read by a microplate reader (Molecular Devices, SpecterMax 190) at OD450.

[3] = biological target: T2, Human BTNL2 protein, His Tag; assay: ELISA, protein immobilized on plate, serially diluted antibody
Experimental: (§1) Human PD-L1 protein (see the table above), human B7-H2 protein, human B7-H3 protein, human B7-H4 protein, human B7-H5 protein, human B7-H6 protein, human B7-1 protein, human B7-2 protein, human PD-L2 protein, human B7-H7 protein, and human BTNL2 protein were separately immobilized on 96-well plates by incubation at 4° C. overnight. The 96-well plates were then blocked by incubation with 1% BSA in PBS at 37° C. for 1 h. After blocking, the 96-well plates were washed 3 times with PBST (PBS containing 0.05% Tween 20). […] After incubation, the 96-well plates were washed 3 times with PBST, incubated with a secondary antibody (see the table above) in binding buffer at 37° C. for 1 h, and then washed again. TMB was added for color development, and the reaction was stopped by 1 M H₂SO₄.

[4] = biological target: T2, Human BTNL2 protein, His Tag; assay: ELISA, protein immobilized on plate, serially diluted antibody-drug conjugate
Experimental: as §1

Binder | EC50 [1] [nM] | EC50 (read off the curve) [2] [µg/mL] | binding result [3] | binding result [4]
B1 | 4.68 | ~0.1 | no binding | 
B2 | 5.25 |  |  | 
B3 | 9.58 |  |  | 
B4 |  |  |  | no binding
